The values that follow come from publication PMC10556615 (Proceedings of the National Academy of Sciences of the …, 2023).

For the assay, the target named is T1, Arabidopsis TIR1 (Transport Inhibitor Response 1), coexpressed with AtASK1 (Arabidopsis, UniProt Q570C0 1-594; Q39255 1-160).
T1 construct: a TEV site stands between the tags and TIR1; ASK1 (AtASK1), Arabidopsis, coexpressed with TIR1; a TEV site stands between the tag and ASK1; that the sample is the TIR1-ASK1 complex is surmised from the coexpression; Cleavage with TEV is not mentioned; also called AtTIR1; His10-eGFP-FLAG-(TEV)-AtTIR1
T1 sequence (looked up) 1: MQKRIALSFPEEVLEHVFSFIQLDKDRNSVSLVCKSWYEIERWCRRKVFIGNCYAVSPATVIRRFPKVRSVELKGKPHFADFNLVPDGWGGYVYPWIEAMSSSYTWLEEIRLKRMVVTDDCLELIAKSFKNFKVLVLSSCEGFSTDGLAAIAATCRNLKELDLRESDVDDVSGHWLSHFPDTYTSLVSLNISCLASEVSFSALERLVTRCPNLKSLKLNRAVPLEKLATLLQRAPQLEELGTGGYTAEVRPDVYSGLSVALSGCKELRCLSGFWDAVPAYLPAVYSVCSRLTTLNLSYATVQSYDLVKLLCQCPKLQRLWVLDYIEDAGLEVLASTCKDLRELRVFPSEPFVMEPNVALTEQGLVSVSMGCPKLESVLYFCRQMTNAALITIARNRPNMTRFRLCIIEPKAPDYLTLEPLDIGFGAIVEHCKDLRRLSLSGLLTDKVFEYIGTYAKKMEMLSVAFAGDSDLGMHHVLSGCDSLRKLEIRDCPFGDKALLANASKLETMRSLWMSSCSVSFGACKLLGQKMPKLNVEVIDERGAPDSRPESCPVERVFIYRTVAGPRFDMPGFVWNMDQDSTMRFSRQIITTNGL
T1 sequence (looked up) 2: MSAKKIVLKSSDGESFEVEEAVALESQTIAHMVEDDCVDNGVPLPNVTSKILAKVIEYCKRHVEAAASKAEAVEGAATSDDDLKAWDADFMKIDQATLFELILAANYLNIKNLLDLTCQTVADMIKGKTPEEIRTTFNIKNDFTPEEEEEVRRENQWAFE
Nature of the assay: NMR titration; 1H-15N HSQC of 15N-labeled AXR3 DI/DII with unlabeled TIR1 added, 1:3 ratio, 5 to 10 µM TIR1, 4 °C, 20 mM sodium phosphate pH 6.0, 150 mM NaCl, 3 mM EDTA, 10 mM DTT; loss of HN cross peak intensity; no auxin. As to conditions: both partners purified.

B1: AXR3 DI/DII (N-terminal half of the Aux/IAA protein IAA17/AXR3, residues 1 to 101) (domain or fragment, UniProt P93830 1-101, looked up)
chain: MMGSVELNLRETELCLGLPGGDTVAPVTGNKRGFSETVDLKLNLNNEPANKEGSTTHDVVTFDSKEKSACPKDPAKPPAKAQVVGWPPVRSYRKNVMVSCQ
modifications: 15N isotopically labeled
notes: AXR3 (IAA17), Aux/IAA protein, domains I and II (DI/DII), residues 1 to 101, without the C-terminal PB1 domain; also called AXR3_(1-101); N-terminal half of AXR3; source: E. coli Rosetta DE3, minimal media with 15N ammonium chloride, purified (Co-NTA)
As for B1, the binding result is reported as “binds”.
